Assay results: publication PMC6160384, “TDP-43 regulates cancer-associated microRNAs”

Target: TDP-43 (His-TDP-43 wild type) (UniProt Q13148 1-414)
Test: EMSA; EMSA: LightShift Chemiluminescent RNA EMSA Kit (Thermo), per manufacturer; buffer, salt, pH and temperature not stated
Details: protein: recombinant; tags: His tag; text says C-terminal (pEASY-E2); label: biotin

Sequence of TDP-43 (His-TDP-43 wild type) (Q13148 whole entry): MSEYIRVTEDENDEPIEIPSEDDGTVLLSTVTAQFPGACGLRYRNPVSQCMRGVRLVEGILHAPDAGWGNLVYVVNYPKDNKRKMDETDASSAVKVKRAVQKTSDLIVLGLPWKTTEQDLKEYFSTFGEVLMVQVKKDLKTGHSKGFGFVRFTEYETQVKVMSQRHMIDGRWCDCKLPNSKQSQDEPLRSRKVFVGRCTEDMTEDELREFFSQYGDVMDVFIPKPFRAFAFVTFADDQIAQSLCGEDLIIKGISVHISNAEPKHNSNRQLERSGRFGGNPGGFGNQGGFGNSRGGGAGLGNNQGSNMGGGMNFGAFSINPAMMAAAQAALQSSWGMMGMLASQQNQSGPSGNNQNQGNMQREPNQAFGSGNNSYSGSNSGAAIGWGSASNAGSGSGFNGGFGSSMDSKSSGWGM

Row | Binder | binding result
1 | AUGCACCUGGGCAAGGAUUCUG (ssRNA) [miR-500a-3p] | binds
2 | AGCUCGGUCUGAGGCCCCUCAGU (ssRNA) [miR-423-3p] | binds
3 | CACGCUCAUGCACACACCCACA (ssRNA) [miR-574-3p] | no binding
